Reference: EP0873354B1

Legend:
[1] = molecular target: rat liver AMPK α1 isoform (affinity purified α1 AMPK, native enzyme) (rat) (UniProt P54645); assay: peptide substrate affinity chromatography of rat liver preparations, single pass
[2] = molecular target: rat liver AMPK α1 isoform (affinity purified α1 AMPK, native enzyme) (rat) (UniProt P54645); assay: peptide substrate affinity chromatography of rat liver preparations, with recycling

Chain of UniProt P54645 (P54645 whole entry, form in doubt, chain 1 of 2, canonical isoform): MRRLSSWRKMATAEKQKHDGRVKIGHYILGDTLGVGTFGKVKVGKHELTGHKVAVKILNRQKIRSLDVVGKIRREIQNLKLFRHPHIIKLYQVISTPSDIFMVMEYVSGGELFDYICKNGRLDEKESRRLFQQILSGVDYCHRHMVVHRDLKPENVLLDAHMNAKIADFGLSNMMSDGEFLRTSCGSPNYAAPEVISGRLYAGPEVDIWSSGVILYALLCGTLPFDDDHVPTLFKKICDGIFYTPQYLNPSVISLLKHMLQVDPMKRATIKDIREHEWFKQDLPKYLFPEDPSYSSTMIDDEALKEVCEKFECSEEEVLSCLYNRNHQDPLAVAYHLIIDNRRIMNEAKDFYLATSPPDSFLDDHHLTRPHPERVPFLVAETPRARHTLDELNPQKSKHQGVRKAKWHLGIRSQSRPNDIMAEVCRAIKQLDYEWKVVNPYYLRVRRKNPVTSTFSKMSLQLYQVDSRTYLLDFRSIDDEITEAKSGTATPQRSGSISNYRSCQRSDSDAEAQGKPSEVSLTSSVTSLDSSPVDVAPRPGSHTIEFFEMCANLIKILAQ
Chain of UniProt P54645 (P80385 whole entry, form in doubt, chain 2 of 2, further chain, canonical isoform): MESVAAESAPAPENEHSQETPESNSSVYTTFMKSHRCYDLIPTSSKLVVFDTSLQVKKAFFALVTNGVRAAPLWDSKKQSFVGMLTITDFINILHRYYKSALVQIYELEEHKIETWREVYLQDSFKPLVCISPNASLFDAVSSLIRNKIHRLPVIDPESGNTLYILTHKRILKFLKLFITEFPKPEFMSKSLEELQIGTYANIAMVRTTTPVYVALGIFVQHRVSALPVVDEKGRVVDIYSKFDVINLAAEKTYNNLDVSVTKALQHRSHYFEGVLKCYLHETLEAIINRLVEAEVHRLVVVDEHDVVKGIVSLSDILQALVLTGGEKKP

Substance: ADR1 (222-234)P229 peptide
- proportion of SAMS peptide phosphotransferase activity bound to the peptide affinity column with a single pass [1]: 90 to 92%
- proportion of SAMS peptide phosphotransferase activity bound to the column with recycling [2]: 94%
